Data taken from patent US20020173477A1.

Biological target: human Cε-containing IgE in serum of Hu-IgE transgenic mice (human Cε region and the H chain V region of the murine Mab BAT123) (human) (UniProt P01854)
Assay: cell-based or functional assay

Q: Which IgE suppression in Hu-IgE transgenic mice infected with Ad-Hu-901 (mCγ2a,κ), day 4 post infection (free IgE ELISA) does the source give for “Hu-901 (mCγ2a,κ), intact anti-IgE antibody with humanized variable regions and murine constant regions (from UniProt P01863 1-330)” here?
A: 40 to 90%
